In publication PMC6692557 one finds stoichiometry N data, which are given here for one substance.

The target of the test is HgdA (All5345), putative nucleoside-diphosphate-sugar epimerase / UDP-galactose 4-epimerase of Anabaena sp. PCC 7120 (Anabaena sp. PCC 7120). Nature of the test: SEC; Superdex 75 10/300 on an ÄKTA system, Tris buffer (20 mmol/L Tris, 200 mmol/L NaCl, pH 7.5); masses calibrated with standard proteins (Gel Filtration LMW Calibration Kit). In general terms: In gel filtration, larger molecules generally elute earlier.

Turning to “HgdA (All5345), putative nucleoside-diphosphate-sugar epimerase / UDP-galactose 4-epimerase of Anabaena sp. PCC 7120 (enzyme)”, the stoichiometry N was 2.

The term stoichiometry N denotes a count of units in the complex or per binding partner.
